# Laboratory results published in patent publication US20110256132A1 (published 2011).
# Numbering of substitutions follows the chain as printed. Numbers in names are those of the source. Where two headings read alike, the source gives them in different places.
# T1: mature myostatin (recombinant, dimeric) (mouse polyprotein used for in-house …, UniProt O08689 268-376)
# T1 construct: also called GDF-8; recombinant myostatin
# T1 sequence: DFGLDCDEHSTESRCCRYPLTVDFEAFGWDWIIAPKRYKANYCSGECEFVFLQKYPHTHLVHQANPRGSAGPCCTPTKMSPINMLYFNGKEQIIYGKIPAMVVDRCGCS
# B1: H1L2 (antibody, human IgG1, kappa)
# heavy: not shown
# light: DIQMTQSPSSLSASVGDRVTITCKASQDINSYLSWFQQKPGKAPKSLIYRANRLVDGVPSKFSGSGSGTDYTLTISSLQPEDFATYYCLQCDEFPLTFGQGTKLEIKRTVAAPSVFIFPPSDEQLKSGTASVVCLLNNFYPREAKVQWKVDNALQSGNSQESVTEQDSKDSTYSLSSTLTLSKADYEKHKVYACEVTHQGLSSPVTKSFNRGEC
# notes: Humanised, human IgG1 wild type/kappa
# B2: H2L2-C91S_G100A_K (antibody, human IgG1, kappa, V domains shown)
# VH: QVQLVQSGAEVKKPGASVKVSCKASGYSFTGYFMHWVRQAPGQGLEWMGNIYPYNGVSNYNQRFKARVTMTTDTSTSTAYMELRSLRSDDTAVYYCARRYYYGTKPADWYFDVWGQGTLVTVSS
# VL: DIQMTQSPSSLSASVGDRVTITCKASQDINSYLSWFQQKPGKAPKSLIYRANRLVDGVPSKFSGSGSGTDYTLTISSLQPEDFATYYCLQSDEFPLTFGQGTKLEIKR
# B3: H2L3 (antibody, human IgG1, kappa)
# heavy: not shown
# light: B1 light with Y71F, Q100A
# notes: as for B1
# B4: H2L1 (antibody, human IgG1, kappa)
# heavy: not shown
# light: B1 light with G16R, Y71F
# notes: as for B1
# B5: H2L2-C91S_V102N (antibody, human IgG1, kappa, name in Kabat numbering, V domains shown)
# VH: B2 VH with K105G, V113N
# VL: B2 VL
# B6: H2L2-C91S_F100G_Y (antibody, human IgG1, kappa)
# heavy: not shown
# light: B1 light with C91S
# notes: Fc not disabled
# B7: H2L2-C91S_G99D (antibody, human IgG1, kappa, name in Kabat numbering, V domains shown)
# VH: B2 VH with G103D, K105G
# VL: B2 VL
# B8: H2L2-C91S_P100B_I (antibody, human IgG1, kappa, V domains shown)
# VH: B2 VH with K105G, P106I
# VL: B2 VL
# B9: H2L0 (antibody, human IgG1, kappa)
# heavy: not shown
# light: B1 light with Y71F
# notes: as for B1
# B10: H2L2 N54Q & C91S (H2L2-N54Q-C91S) (antibody, human IgG1, kappa, V domains shown)
# VH: B2 VH with N55Q, K105G
# VL: B2 VL
# B11: H2L2-C91S_V102S (antibody, human IgG1, kappa, name in Kabat numbering, V domains shown)
# VH: B2 VH with K105G, V113S
# VL: B2 VL
# B12: H2L2-C91S_G99S (antibody, human IgG1, kappa, name in Kabat numbering, V domains shown)
# VH: B2 VH with G103S, K105G
# VL: B2 VL
# B13: H2L2-C91S_Y96L (antibody, human IgG1, kappa, name in Kabat numbering, V domains shown)
# VH: B2 VH with Y100L, K105G
# VL: B2 VL
# B14: H2L2-C91S_P100B_F (antibody, human IgG1, kappa, V domains shown)
# VH: B2 VH with K105G, P106F
# VL: B2 VL
# Tests used:
# [1] = biological target: T1, mature myostatin (recombinant, dimeric); experiment: BIAcore, low density myostatin surface, antibody analyte, 1:1 model
# Experimental: (§1) Purified H0L0, H1L2 and H2L2 bound recombinant myostatin by BIAcore™ Recombinant myostatin was immobilised at three different densities (low, medium and high, to give R-max values of approximately 35, 120 and 350 RU's respectively) onto a BIAcore™ chip. Antibodies were passed over at 256, 64, 16, 4 and 1 nM. 0 nM antibody was used for double referencing and data was fitted to the 1:1 model.
# [2] = biological target: T1, mature myostatin (recombinant, dimeric); experiment: BIAcore, high density myostatin surface, antibody analyte, 1:1 model (poor fits)
# Experimental: as §1
# [3] = biological target: T1, mature myostatin (recombinant, dimeric); experiment: BIAcore, medium density myostatin surface, antibody analyte, 1:1 model (poor fits)
# Experimental: as §1
# [4] = biological target: T1, mature myostatin (recombinant, dimeric); experiment: BIAcore T100 full kinetics, high density myostatin surface, Bivalent model
# Experimental: The CDRH3 variants were passed over all three surfaces at 256 nM, 64 nM, 16 nM, 4 nM, 1 nM with a buffer injection (i.e. 0 nM) used for double referencing, regeneration was using 100 mM phosphoric acid. The data was fitted to the Bivalent model inherent to the T100 Biacore machine and was run using HBS-EP at 25° C.
# [5] = biological target: T1, mature myostatin (recombinant, dimeric); experiment: myostatin binding ELISA, 10 ng/well recombinant myostatin coated, CHOK1 supernatants, anti-human kappa HRP, OPD, A490 (Examples 4.1, 4.2)
# Experimental: The myostatin binding ELISA was carried out approximately according to this protocol. A 96-well ELISA plate was coated at 4° C. overnight with 10 ng/well recombinant myostatin. This plate was then washed 3-times in wash buffer (PBS, 0.1% Tween-20). The wells were blocked for 1 hour at room temperature with block solution (PBS, 0.1% Tween-20+1% bovine serum albumin [BSA]), before washing 3-times in wash buffer. Antibodies were then titrated out to a suitable concentration range (approximately 100 to 0.001 μg/ml), added to the plate and incubated for 1 hour at room temperature. The plate was then washed 3-times in wash buffer. An anti-mouse IgG HRP-conjugated antibody (P0260 by Dako, this reagent was used according to the manufacturer's instructions) was used to detect binding of mouse antibodies, such as 10B3. An anti-human kappa light chain HRP-conjugated antibody (A7164 by Sigma Aldridge, this reagent was used according to the manufacturer's instructions) was used to detect binding of humanized or chimeric antibodies, such as 10B3 chimera or H0L0. The plate was then washed 3-times in wash buffer and developed with an OPD substrate (from Sigma, used according to the manufacturer's instructions) and read at 490 nm on a plate reader.
# [6] = biological target: T1, mature myostatin (recombinant, dimeric); experiment: cell-based or functional assay
# [7] = biological target: T1, mature myostatin (recombinant, dimeric); experiment: competition ELISA, directly coated myostatin, competitor 10B3
# Experimental: (§2) A 96-well ELISA plate was coated at 4° C. overnight with 2.5 μg/ml polyclonal Antibody to Myostatin (R&D Systems AF788). This plate was then washed 3-times in wash buffer (PBS, 0.1% Tween-20) and blocked for 1 hour at room temperature with block solution (PBS, 0.1% Tween-20+1% bovine serum albumin [BSA]). Then, myostatin was added at 1 μg/ml in block buffer during 1 hour followed by 3-times in wash buffer. Antibodies were then titrated out to a suitable concentration range (approximately 10 to 0.01 μg/ml), added to the plate and incubated for 1 hour at room temperature. The plate was then washed 3-times in wash buffer. An anti-human kappa light chain HRP-conjugated antibody (Sigma A7164, used according to the manufacturer's instructions) was used to detect binding of humanized or chimeric antibodies, such as 10B3 chimera (HcLc) or H0L0. The plate was then washed 3-times in wash buffer and developed with an OPD substrate (according to the manufacturer's instructions) and read at 490 nm on a plate reader.
# The protocol set out in 6.7 was used but the plates were initially coated at 4° C. overnight with 0.2 μg/ml of myostatin (recombinant in-house, see 1.1 above). 10B3 (final concentration of 0.3 μg/ml) was added into each well and mixed with antibodies titrated out to a suitable concentration range (approximately 10 to 0.01 μg/ml). An anti-mouse HRP-conjugated antibody (DAKO P0260, used according to the manufacturer's instructions) was used to detect binding of the 10B3 antibody.
# [8] = biological target: T1, mature myostatin (recombinant, dimeric); experiment: competition ELISA, biotinylated myostatin on streptavidin, competitor 10B3
# Experimental: as §2
# The protocol set out in 6.7 was used but the plates were initially coated at 4° C. overnight with 5 μg/ml of streptavidin. Biotinylated myostatin was added at 0.3 μg/ml block buffer during 1 hour followed by 3-times in wash buffer. 10B3 (final concentration of 0.2 μg/ml) was added into each well and mixed with antibodies titrated out to a suitable concentration range (approximately 10 to 0.01 μg/ml). An anti-mouse HRP-conjugated antibody (DAKO P0260, used according to the manufacturer's instructions) was used to detect binding of the 10B3 antibody.
# [9] = biological target: T1, mature myostatin (recombinant, dimeric); experiment: competition ELISA, myostatin captured by polyclonal antibody, competitor 10B3
# Experimental: as §2
# The protocol set out in 6.7 was used with the addition of 10B3 (final concentration of […]) to each well and mixed with the antibodies titrated out to a suitable concentration range (approximately 10 to 0.01 μg/ml). An anti-mouse HRP-conjugated antibody (DAKO P0260, used according to the manufacturer's instructions) was used to detect binding of the 10B3 antibody.
# [10] = biological target: T1, mature myostatin (recombinant, dimeric); experiment: cell-based or functional assay; remark: listed apart in the source
# [11] = biological target: T1, mature myostatin (recombinant, dimeric); experiment: cell-based or functional assay; remark: listed apart in the source
# [12] = biological target: T1, mature myostatin (recombinant, dimeric); experiment: BIAcore, low density myostatin surface, methods as in 4.3
Binder,fold of affinity against F100G_Y [4] [fold],"Mean IC50, A204 in vitro activity assay (5 nM myostatin) [6] [nM]","ranking order top (1) to bottom (5), myostatin competition ELISA [7]","ranking order top (1) to bottom (5), myostatin competition ELISA [8]","ranking order top (1) to bottom (5), myostatin competition ELISA [9]",other results
B1,–,–,–,–,–,Kd [1]: 15.1 nM; koff [1]: 0.00332 s⁻¹; kon [1]: 220000 M⁻¹ s⁻¹; Kd [2]: 2.42 nM; koff [2]: 0.000223 s⁻¹; kon [2]: 92200 M⁻¹ s⁻¹; Kd [3]: 5.06 nM; koff [3]: 0.000693 s⁻¹; kon [3]: 137000 M⁻¹ s⁻¹
B2,≤ 2,–,–,–,–,–
B3,–,–,–,–,–,binding result [5]: binds
B4,–,–,–,–,–,binding result [5]: binds
B5,≤ 2,5.51,3,4,2,–
B6,–,3.64,2,2,4,"Mean IC50, A204 in vitro activity assay [10]: 11.1 nM"
B7,≤ 2,–,–,–,5,–
B8,–,4.53,5,3,–,–
B9,–,–,–,–,–,binding result [5]: binds
B10,–,–,–,–,–,"Mean IC50, A204 in vitro activity assay [11]: 10.4 nM; Kd [12]: 33.3 nM"
B11,≤ 2,4.22,4,1,3,–
B12,≤ 2,–,–,–,–,–
B13,≤ 2,–,–,5,–,–
B14,–,4.24,1,–,1,–
